# Assay results reported in patent publication US20260049138A1 (Chugai, published 2026).
# Where a chain is given by its changes, count along the chain named. Names and notes keep the numbering of the source.
# B1: CE115HA000 W33H one-arm antibody (antibody, human IgG1, kappa, L234A L235A, N297A, name in Kabat numbering)
# heavy: QVQLVESGGGVVQPGRSLRLSCAASGFTFSNAHMHWVRQAPGKGLEWVAQIKAKSNNYATYYAESVKGRFTISRDDSKNSLYLQMNSLKTEDTAVYYCRYVHYGAYYGVDAWGQGTTVTVSSASTKGPSVFPLAPSSKSTSGGTAALGCLVKDYFPEPVTVSWNSGALTSGVHTFPAVLQSSGLYSLSSVVTVPSSSLGTQTYICNVNHKPSNTKVDKKVEPKSCDKTHTCPPCPAPEAAGGPSVFLFPPKPKDTLMISRTPEVTCVVVDVSHEDPEVKFNWYVDGVEVHNAKTKPREEQYASTYRVVSVLTVLHQDWLNGKEYKCKVSNKALPAPIEKTISKAKGQPREPQVYTLPPSRCELTKNQVSLSCAVKGFYPSDIAVEWESNGQPENNYKTTPPVLDSDGSFFLVSKLTVDKSRWQQGNVFSCSVMHEALHNHYTQKSLSLSPDYKDDDDK
# chain: EPKSSDKTHTCPPCPAPELLGGPSVFLFPPKPKDTLMISRTPEVTCVVVDVSHEDPEVKFNWYVDGVEVHNAKTKPREEQYNSTYRVVSVLTVLHQDWLNGKEYKCKVSNKALPAPIEKTISKAKGQPREPQVCTLPPSRDELTKNQVSLWCLVKGFYPSDIAVEWESNGQPENNYKTTPPVLDSDGSFFLYSKLTVDKSRWQQGNVFSCSVMHEALHNRYTQKSLSLSP
# light: DIVMTQSPLSLPVTPGEPASISCRSSQSLVHSNRNTYLHWYQQKPGQAPRLLIYKVSNRFSGVPDRFSGSGSGTDFTLKISRVEAEDVGVYYCGQGTQVPYTFGQGTKLEIKRTVAAPSVFIFPPSDEQLKSGTASVVCLLNNFYPREAKVQWKVDNALQSGNSQESVTEQDSKDSTYSLSSTLTLSKADYEKHKVYACEVTHQGLSSPVTKSFNRGEC
# B2: CE115HA000 Y100V one-arm antibody (antibody, human IgG1, kappa, L234A L235A, N297A, name in Kabat numbering)
# heavy: B1 heavy with H33W, Y106V
# chain: B1 chain
# light: B1 light
# B3: CE115HA000 Y58N one-arm antibody (antibody, human IgG1, kappa, L234A L235A, N297A, name in Kabat numbering)
# heavy: B1 heavy with H33W, Y61N
# chain: B1 chain
# light: B1 light
# B4: CE115HA000 Y100G one-arm antibody (antibody, human IgG1, kappa, L234A L235A, N297A, name in Kabat numbering)
# heavy: B1 heavy with H33W, Y106G
# chain: B1 chain
# light: B1 light
# B5: CE115HA000 Y97D one-arm antibody (antibody, human IgG1, kappa, L234A L235A, N297A, name in Kabat numbering)
# heavy: B1 heavy with H33W, Y103D
# chain: B1 chain
# light: B1 light
# B6: CE115HA000 Y58A one-arm antibody (antibody, human IgG1, kappa, L234A L235A, N297A, name in Kabat numbering)
# heavy: B1 heavy with H33W, Y61A
# chain: B1 chain
# light: B1 light
# B7: CE115HA000 Y97G one-arm antibody (antibody, human IgG1, kappa, L234A L235A, N297A, name in Kabat numbering)
# heavy: B1 heavy with H33W, Y103G
# chain: B1 chain
# light: B1 light
# B8: CE115HA000 Y100Q one-arm antibody (antibody, human IgG1, kappa, L234A L235A, N297A, name in Kabat numbering)
# heavy: B1 heavy with H33W, Y106Q
# chain: B1 chain
# light: B1 light
# B9: CE115HA000 Y58D one-arm antibody (antibody, human IgG1, kappa, L234A L235A, N297A, name in Kabat numbering)
# heavy: B1 heavy with H33W, Y61D
# chain: B1 chain
# light: B1 light
# B10: CE115HA000 Y97S one-arm antibody (antibody, human IgG1, kappa, L234A L235A, N297A, name in Kabat numbering)
# heavy: B1 heavy with H33W, Y103S
# chain: B1 chain
# light: B1 light
# B11: CE115HA000 Y100K one-arm antibody (antibody, human IgG1, kappa, L234A L235A, N297A, name in Kabat numbering)
# heavy: B1 heavy with H33W, Y106K
# chain: B1 chain
# light: B1 light
# B12: CE115HA000 Y59S one-arm antibody (antibody, human IgG1, kappa, L234A L235A, N297A, name in Kabat numbering)
# heavy: B1 heavy with H33W, Y62S
# chain: B1 chain
# light: B1 light
# B13: CE115HA000 W33L one-arm antibody (antibody, human IgG1, kappa, L234A L235A, N297A, name in Kabat numbering)
# heavy: B1 heavy with H33L
# chain: B1 chain
# light: B1 light
# B14: CE115HA000 Y55D one-arm antibody (antibody, human IgG1, kappa, L234A L235A, N297A, name in Kabat numbering)
# heavy: B1 heavy with H33W, Y58D
# chain: B1 chain
# light: B1 light
# B15: CE115HA000 Y58K one-arm antibody (antibody, human IgG1, kappa, L234A L235A, N297A, name in Kabat numbering)
# heavy: B1 heavy with H33W, Y61K
# chain: B1 chain
# light: B1 light
# B16: CE115HA000 Y97A one-arm antibody (antibody, human IgG1, kappa, L234A L235A, N297A, name in Kabat numbering)
# heavy: B1 heavy with H33W, Y103A
# chain: B1 chain
# light: B1 light
# B17: CE115HA000 Y55G one-arm antibody (antibody, human IgG1, kappa, L234A L235A, N297A, name in Kabat numbering)
# heavy: B1 heavy with H33W, Y58G
# chain: B1 chain
# light: B1 light
# B18: CE115HA000 Y58L one-arm antibody (antibody, human IgG1, kappa, L234A L235A, N297A, name in Kabat numbering)
# heavy: B1 heavy with H33W, Y61L
# chain: B1 chain
# light: B1 light
# B19: CE115HA000 Y59E one-arm antibody (antibody, human IgG1, kappa, L234A L235A, N297A, name in Kabat numbering)
# heavy: B1 heavy with H33W, Y62E
# chain: B1 chain
# light: B1 light
# B20: CE115HA000 Y100L one-arm antibody (antibody, human IgG1, kappa, L234A L235A, N297A, name in Kabat numbering)
# heavy: B1 heavy with H33W, Y106L
# chain: B1 chain
# light: B1 light
# B21: CE115HA000 Y58Q one-arm antibody (antibody, human IgG1, kappa, L234A L235A, N297A, name in Kabat numbering)
# heavy: B1 heavy with H33W, Y61Q
# chain: B1 chain
# light: B1 light
# B22: CE115HA000 Y100A one-arm antibody (antibody, human IgG1, kappa, L234A L235A, N297A, name in Kabat numbering)
# heavy: B1 heavy with H33W, Y106A
# chain: B1 chain
# light: B1 light
# B23: CE115HA000 Y97P one-arm antibody (antibody, human IgG1, kappa, L234A L235A, N297A, name in Kabat numbering)
# heavy: B1 heavy with H33W, Y103P
# chain: B1 chain
# light: B1 light
# B24: CE115HA000 Y100P one-arm antibody (antibody, human IgG1, kappa, L234A L235A, N297A, name in Kabat numbering)
# heavy: B1 heavy with H33W, Y106P
# chain: B1 chain
# light: B1 light
# B25: CE115HA000 Y58S one-arm antibody (antibody, human IgG1, kappa, L234A L235A, N297A, name in Kabat numbering)
# heavy: B1 heavy with H33W, Y61S
# chain: B1 chain
# light: B1 light
# B26: CE115HA000 Y100D one-arm antibody (antibody, human IgG1, kappa, L234A L235A, N297A, name in Kabat numbering)
# heavy: B1 heavy with H33W, Y106D
# chain: B1 chain
# light: B1 light
# B27: CE115HA000 Y55S one-arm antibody (antibody, human IgG1, kappa, L234A L235A, N297A, name in Kabat numbering)
# heavy: B1 heavy with H33W, Y58S
# chain: B1 chain
# light: B1 light
# B28: CE115HA000 W33Y one-arm antibody (antibody, human IgG1, kappa, L234A L235A, N297A, name in Kabat numbering)
# heavy: B1 heavy with H33Y
# chain: B1 chain
# light: B1 light
# B29: CE115HA000 Y59D one-arm antibody (antibody, human IgG1, kappa, L234A L235A, N297A, name in Kabat numbering)
# heavy: B1 heavy with H33W, Y62D
# chain: B1 chain
# light: B1 light
# B30: CE115HA000 Y97R one-arm antibody (antibody, human IgG1, kappa, L234A L235A, N297A, name in Kabat numbering)
# heavy: B1 heavy with H33W, Y103R
# chain: B1 chain
# light: B1 light
# B31: CE115HA000 Y100S one-arm antibody (antibody, human IgG1, kappa, L234A L235A, N297A, name in Kabat numbering)
# heavy: B1 heavy with H33W, Y106S
# chain: B1 chain
# light: B1 light
# B32: CE115HA000 Y59A one-arm antibody (antibody, human IgG1, kappa, L234A L235A, N297A, name in Kabat numbering)
# heavy: B1 heavy with H33W, Y62A
# chain: B1 chain
# light: B1 light
# Biological target: T1, CD3ε homodimer protein (human, UniProt P07766 23-126, limits assumed, sulfo-tag or biotin label in the ECL assays; amine-coupled to the chip in SPR)
# T1 construct: also called human CD3ε homodimer protein; CD3 (CD3ε)
# Experiment: SPR Biacore T200; CD3ε homodimer on CM4 chip;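 note: Single-residue variant antibodies injected as analyte over CD3ε homodimer immobilized by amine coupling, run at 25 °C in HBS-EP+ buffer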
# Description: An appropriate amount of CD3ε homodimer protein was immobilized onto Sensor chip CM4 (GE Healthcare Japan Corp.) by the amine coupling method. Then, the antibody having an appropriate concentration was injected thereto as an analyte and allowed to interact with the CD3ε homodimer protein on the sensor chip. Then, the sensor chip was regenerated by the injection of 10 mmol/L glycine-HCl (pH 1.5). The assay was conducted at 25° C., and HBS-EP+ (GE Healthcare Japan Corp.) was used as a running buffer. […] Each parameter was calculated using Biacore T200 Evaluation Software (GE Healthcare Japan Corp.).
# T1 sequence (P07766 23-126 limits assumed): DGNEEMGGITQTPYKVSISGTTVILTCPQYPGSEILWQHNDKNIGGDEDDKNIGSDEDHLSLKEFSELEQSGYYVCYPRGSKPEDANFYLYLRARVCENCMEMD
row,ratio of amounts bound Z=Y/X (altered form / CE115HA000),Binder
1,0.13,B1
2,0.6,B2
3,0.33,B3
4,1.07,B4
5,0.24,B5
6,0.22,B6
7,0.18,B7
8,0.8,B8
9,0.11,B9
10,0.18,B10
11,1.07,B11
12,0.94,B12
13,0.1,B13
14,0.45,B14
15,0.3,B15
16,0.16,B16

row,ratio of amounts bound Z=Y/X (altered form / CE115HA000),Binder
1,0.65,B17
2,0.27,B18
3,0.86,B19
4,0.7,B20
5,0.19,B21
6,0.9,B22
7,0.11,B23
8,0.48,B24
9,0.18,B25
10,0.52,B26
11,0.26,B27
12,0.66,B28
13,0.7,B29
14,0.27,B30
15,0.81,B31
16,0.85,B32
